Among the data in patent US20250145729A1 (DENALI THERAPEUTICS, published 2025) are Kd values, retold here.

The target of one test is T1, human CD98hc (human, UniProt P08195 109-529).
T1 construct: also called huCD98hc; CD98 heavy chain
T1 sequence: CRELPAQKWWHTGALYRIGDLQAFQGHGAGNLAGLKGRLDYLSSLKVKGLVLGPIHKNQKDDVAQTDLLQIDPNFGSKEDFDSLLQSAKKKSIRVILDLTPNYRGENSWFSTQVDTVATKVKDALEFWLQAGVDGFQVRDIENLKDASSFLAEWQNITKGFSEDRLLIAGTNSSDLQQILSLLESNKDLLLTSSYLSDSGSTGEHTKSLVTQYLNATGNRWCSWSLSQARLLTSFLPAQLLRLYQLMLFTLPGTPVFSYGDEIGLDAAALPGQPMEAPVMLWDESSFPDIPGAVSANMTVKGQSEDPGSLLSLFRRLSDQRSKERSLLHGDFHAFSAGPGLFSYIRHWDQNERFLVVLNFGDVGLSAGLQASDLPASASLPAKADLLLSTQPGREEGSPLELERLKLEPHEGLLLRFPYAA
Put plainly: SPR (Biacore). A digest of the protocol:
(§1)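 Binding affinity (Kd) of the engineered Fc polypeptides for CD98hc was measured by surface plasmon resonance on a Biacore instrument. Clones were cloned, expressed and purified as Fc-Fab fusions carrying anti-BACE1 Fabs. They were tested in a bivalent format or in a monovalent knob/hole format with the CD98hc-binding site on the knob chain only. The text gives no concentrations, temperature, buffer or replicate numbers.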
For orientation: Surface plasmon resonance follows binding to a sensor surface in real time, without labels.

A further test concerns the target T2, cyno CD98hc (cynomolgus monkey).
T2 construct: also called cynomolgus CD98hc; cyCD98hc
In words: SPR (Biacore). A digest of the protocol: as §1

B1: LLB2.10.8.4.12.N (Fc fusion)
chain: APELLGGPSVFLFPPKPKDTLMISRTPEVTCVVVDVSHEDPEVKFNWYVDGVEVHNAKTKPREEQYNSTYRVVSVLTVLHQDWLNGKEYKCKVSNKALPAPIEKTISKAKGQPREPQVYTLPPSRDELTKNQVSLTCLVKGFYPSDIAVLWNSRFVLENNYKTTPPVLDSDGSFFLYSKLTVDKSRWQQGNIFACNVYHEALHNHWTFKNLRLSPGK
notes: Fc part only; changes read against LLB2-10-8
With B1, the Kd (as a rule, the free concentration of one partner at which half of the binding sites on the other are occupied at equilibrium, for simple one-to-one binding) with human CD98hc is 140 nM; with cyno CD98hc, 700 nM.

B2: LLB2.10.8.10.3.N (Fc fusion)
chain: APELLGGPSVFLFPPKPKDTLMISRTPEVTCVVVDVSHEDPEVKFNWYVDGVEVHNAKTKPREEQYNSTYRVVSVLTVLHQDWLNGKEYKCKVSNKALPAPIEKTISKAKGQPREPQVYTLPPSRDELTKNQVSLTCLVKGFYPSDIAVLWNSRFVLENNYKTTPPVLDSDGSFFLYSKLTVDKSRWQQGNIFACNVYHEALHNHYTFKNLRLSPGK
notes: as for B1
On to B2, for which the Kd with human CD98hc was 490 nM; in the test with cyno CD98hc it was 2000 nM.

B3: LLS2.33.8 (Fc fusion)
chain: APELLGGPSVFLFPPKPKDTLMISRTPEVTCVVVDVSHEDPEVKFNWYVDGVEVHNAKTKPREEQYNSTYRVVSVLTVLHQDWLNGKEYKCKVSNKALPAPIEKTISKAKGQPREPQVYTLPPSRDELTKNQVSLTCLVKGFYPSDIAVAWNSKFRLENNYKTTPPVLDSDGSFFLYSKLTVDKSRWQQGNLFACNVWHEALHNHYTFKNLSLSPGK
notes: Fc part only; also called LLB2.33.8
Regarding B3, the Kd in the test with human CD98hc was determined as 2200 nM; with cyno CD98hc, 8200 nM.

B4: LLB2.10.8.14.4.N (Fc fusion)
chain: APELLGGPSVFLFPPKPKDTLMISRTPEVTCVVVDVSHEDPEVKFNWYVDGVEVHNAKTKPREEQYNSTYRVVSVLTVLHQDWLNGKEYKCKVSNKALPAPIEKTISKAKGQPREPQVYTLPPSRDELTKNQVSLTCLVKGFYPSDIAVLWNSRFVLENNYKTTPPVLDSDGSFFLYSKLTVDKSRWQQGNIFACNVYHEALHNHRTFKNLALSPGK
notes: as for B1
Regarding B4, the dissociation constant Kd in the test with human CD98hc was determined as 350 nM; with cyno CD98hc it was 2360 nM.

B5: LLB2.10.8.10.1.N (Fc fusion)
chain: APELLGGPSVFLFPPKPKDTLMISRTPEVTCVVVDVSHEDPEVKFNWYVDGVEVHNAKTKPREEQYNSTYRVVSVLTVLHQDWLNGKEYKCKVSNKALPAPIEKTISKAKGQPREPQVYTLPPSRDELTKNQVSLTCLVKGFYPSDIAVLWNSRFVLENNYKTTPPVLDSDGSFFLYSKLTVDKSRWQQGNIFACNVYHEALHNHYTFKNLKLSPGK
notes: as for B1
As for B5, the Kd was 500 nM with human CD98hc and 1800 nM with cyno CD98hc.

B6: LLB2.10.8.14.3.N (Fc fusion)
chain: APELLGGPSVFLFPPKPKDTLMISRTPEVTCVVVDVSHEDPEVKFNWYVDGVEVHNAKTKPREEQYNSTYRVVSVLTVLHQDWLNGKEYKCKVSNKALPAPIEKTISKAKGQPREPQVYTLPPSRDELTKNQVSLTCLVKGFYPSDIAVLWNSRFVLENNYKTTPPVLDSDGSFFLYSKLTVDKSRWQQGNIFACNVYHEALHNHRTFKNLRLSPGK
notes: as for B1
B6: the values for the Kd with human CD98hc and with cyno CD98hc were 270 nM and 1900 nM, respectively.

B7: LLB2.10.8.12.5.N (Fc fusion)
chain: APELLGGPSVFLFPPKPKDTLMISRTPEVTCVVVDVSHEDPEVKFNWYVDGVEVHNAKTKPREEQYNSTYRVVSVLTVLHQDWLNGKEYKCKVSNKALPAPIEKTISKAKGQPREPQVYTLPPSRDELTKNQVSLTCLVKGFYPSDIAVLWNSHYELENNYKTTPPVLDSDGSFFLYSKLTVDKSRWQQGNIFACNVYHEALHNHYTFKNLALSPGK
notes: as for B1
With B7, the equilibrium dissociation constant (Kd) in the test with human CD98hc was 1500 nM; with cyno CD98hc it was 4700 nM.

B8: LLB2.C.3 (Fc fusion)
chain: APELLGGPSVFLFPPKPKDTLMISRTPEVTCVVVDVSHEDPEVKFNWYVDGVEVHNAKTKPREEQYNSTYRVVSVLTVLHQDWLNGKEYKCKVSNKALPAPIEKTISKAKGQPREPQVYTLPPSRDELTKNQVSLTCLVKGFYPSDIAVVWNSQYELENNYKTTPPVLDSDGSFFLYSKLTVDKSRWQQGNVFACNVWHEALHNHYTFKNLSLSPGK
notes: Fc part only
In the case of B8, the Kd in the test with human CD98hc was 1000 nM; with cyno CD98hc, 3500 nM.

B9: LLS2.C.15 (Fc fusion)
chain: APELLGGPSVFLFPPKPKDTLMISRTPEVTCVVVDVSHEDPEVKFNWYVDGVEVHNAKTKPREEQYNSTYRVVSVLTVLHQDWLNGKEYKCKVSNKALPAPIEKTISKAKGQPREPQVYTLPPSRDELTKNQVSLTCLVKGFYPSDIAVKWNSRFQLENNYKTTPPVLDSDGSFFLYSKLTVDKSRWQQGNLFACNVWHEALHNHYTFKNLSLSPGK
notes: Fc part only; also called LLB2.C.15
On to B9, for which the Kd in the test with human CD98hc came out at 620 nM; in the test with cyno CD98hc, 2200 nM.

B10: LLS2.33.5 (Fc fusion)
chain: APELLGGPSVFLFPPKPKDTLMISRTPEVTCVVVDVSHEDPEVKFNWYVDGVEVHNAKTKPREEQYNSTYRVVSVLTVLHQDWLNGKEYKCKVSNKALPAPIEKTISKAKGQPREPQVYTLPPSRDELTKNQVSLTCLVKGFYPSDIAVQWSSQYELENNYKTTPPVLDSDGSFFLYSKLTVDKSRWQQGNVFACNVWHEALHNHYTFKNLSLSPGK
notes: Fc part only; also called LLB2.33.5
Regarding B10, the figures for the Kd with human CD98hc and with cyno CD98hc were 1700 nM and 6900 nM, respectively.

B11: LLB2.10.8.10.8.N (Fc fusion)
chain: APELLGGPSVFLFPPKPKDTLMISRTPEVTCVVVDVSHEDPEVKFNWYVDGVEVHNAKTKPREEQYNSTYRVVSVLTVLHQDWLNGKEYKCKVSNKALPAPIEKTISKAKGQPREPQVYTLPPSRDELTKNQVSLTCLVKGFYPSDIAVLWNSRFVLENNYKTTPPVLDSDGSFFLYSKLTVDKSRWQQGNIFACNVYHEALHNHYTFKNLHLSPGK
notes: as for B1
B11: the Kd was found to be 650 nM in the test with human CD98hc and 2200 nM in the test with cyno CD98hc.

B12: LLS2.33.2 (Fc fusion)
chain: APELLGGPSVFLFPPKPKDTLMISRTPEVTCVVVDVSHEDPEVKFNWYVDGVEVHNAKTKPREEQYNSTYRVVSVLTVLHQDWLNGKEYKCKVSNKALPAPIEKTISKAKGQPREPQVYTLPPSRDELTKNQVSLTCLVKGFYPSDIAVAWNSKFELENNYKTTPPVLDSDGSFFLYSKLTVDKSRWQQGNLFACNVWHEALHNHYTFKNLSLSPGK
notes: Fc part only; also called LLB2.33.2
On to B12, for which the Kd with human CD98hc amounted to 2000 nM; in the test with cyno CD98hc, 4500 nM.

B13: LLS2.C.4 (Fc fusion)
chain: APELLGGPSVFLFPPKPKDTLMISRTPEVTCVVVDVSHEDPEVKFNWYVDGVEVHNAKTKPREEQYNSTYRVVSVLTVLHQDWLNGKEYKCKVSNKALPAPIEKTISKAKGQPREPQVYTLPPSRDELTKNQVSLTCLVKGFYPSDIAVAWNSRFELENNYKTTPPVLDSDGSFFLYSKLTVDKSRWQQGNIFACNVWHEALHNHYTFKNLSLSPGK
notes: Fc part only; also called LLB2.C.4
Consider B13, for which the equilibrium dissociation constant (Kd) in the test with human CD98hc amounted to 700 nM; with cyno CD98hc it was 2700 nM.

B14: LLS2.43.5 (Fc fusion)
chain: APELLGGPSVFLFPPKPKDTLMISRTPEVTCVVVDVSHEDPEVKFNWYVDGVEVHNAKTKPREEQYNSTYRVVSVLTVLHQDWLNGKEYKCKVSNKALPAPIEKTISKAKGQPREPQVYTLPPSRDELTKNQVSLTCLVKGFYPSDIAVMWNSQYELENNYKTTPPVLDSDGSFFLYSKLTVDKSRWQQGNVFACNVHHEALHNHYTFKNLSLSPGK
notes: Fc part only; also called LLB2.43.5
For the molecule B14, the Kd in the test with human CD98hc amounted to 1200 nM; with cyno CD98hc, 5900 nM.

B15: LLB2.10.8.9.11.N (Fc fusion)
chain: APELLGGPSVFLFPPKPKDTLMISRTPEVTCVVVDVSHEDPEVKFNWYVDGVEVHNAKTKPREEQYNSTYRVVSVLTVLHQDWLNGKEYKCKVSNKALPAPIEKTISKAKGQPREPQVYTLPPSRDELTKNQVSLTCLVKGFYPSDIAVLWNSRFVLENNYKTTPPVLDSDGSFFLYSKLTVDKSRWQQGNTFACNVYHEALHNHYTFKNLALSPGK
notes: Fc part only
Consider B15, for which the equilibrium dissociation constant (Kd) was 1200 nM with human CD98hc and 4500 nM with cyno CD98hc.
